Blank lines part the entries; values can stand above or below the compound they belong to.
What was measured:
Hsp70 = target: T1, Hsp70 (Homo sapiens, UniProt P0DMV8); assay: microscale thermophoresis with NT-647-labeled purified Hsp70; supported by DARTS and substrate-binding assay
T1 construct: gene HSPA1A

[1] = target: Caspase-3 (human (endogenous in U-937)) (UniProt P42574); assay: co-IP; as a4, but biotinylated Hsp70 pretreated with 32 µM BT44
[2] = target: Caspase-3 (human (endogenous in U-937)) (UniProt P42574); assay: ELISA; same competitive protein-protein interaction assay, read as competition: cellular Hsp70 of the lysate (raised by heat shock or hsp70 transfection) holds Caspase-3 of the lysate away from the immobilised pure Hsp70

Caspase-3 (human (endogenous in U-937)), sequence (P42574 whole entry): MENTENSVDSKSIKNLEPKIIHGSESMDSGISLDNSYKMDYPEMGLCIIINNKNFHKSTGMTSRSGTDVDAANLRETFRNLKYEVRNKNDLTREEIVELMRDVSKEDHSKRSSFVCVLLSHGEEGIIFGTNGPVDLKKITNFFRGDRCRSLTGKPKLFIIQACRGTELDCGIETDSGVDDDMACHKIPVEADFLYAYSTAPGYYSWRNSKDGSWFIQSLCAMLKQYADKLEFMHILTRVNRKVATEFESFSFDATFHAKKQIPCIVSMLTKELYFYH
Cellular Hsp70 of U-937 cells, sequence (P0DMV8 whole entry): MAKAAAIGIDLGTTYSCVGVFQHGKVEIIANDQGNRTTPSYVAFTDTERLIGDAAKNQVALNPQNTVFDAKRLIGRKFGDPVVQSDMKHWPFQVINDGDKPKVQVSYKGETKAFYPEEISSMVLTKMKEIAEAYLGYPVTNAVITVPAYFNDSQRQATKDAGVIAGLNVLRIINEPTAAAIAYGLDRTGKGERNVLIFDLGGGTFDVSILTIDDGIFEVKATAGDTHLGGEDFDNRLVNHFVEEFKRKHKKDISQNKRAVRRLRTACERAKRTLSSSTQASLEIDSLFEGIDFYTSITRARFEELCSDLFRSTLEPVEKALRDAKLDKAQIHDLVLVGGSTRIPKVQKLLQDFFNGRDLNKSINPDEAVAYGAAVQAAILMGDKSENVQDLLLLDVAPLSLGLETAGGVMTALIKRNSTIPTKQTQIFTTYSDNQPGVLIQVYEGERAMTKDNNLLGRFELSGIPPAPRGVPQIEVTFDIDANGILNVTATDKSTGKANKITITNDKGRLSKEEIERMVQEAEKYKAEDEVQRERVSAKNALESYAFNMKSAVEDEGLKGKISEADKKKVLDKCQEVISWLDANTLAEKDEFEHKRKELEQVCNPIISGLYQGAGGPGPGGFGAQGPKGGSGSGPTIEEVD
T1 sequence (P0DMV8 2-641): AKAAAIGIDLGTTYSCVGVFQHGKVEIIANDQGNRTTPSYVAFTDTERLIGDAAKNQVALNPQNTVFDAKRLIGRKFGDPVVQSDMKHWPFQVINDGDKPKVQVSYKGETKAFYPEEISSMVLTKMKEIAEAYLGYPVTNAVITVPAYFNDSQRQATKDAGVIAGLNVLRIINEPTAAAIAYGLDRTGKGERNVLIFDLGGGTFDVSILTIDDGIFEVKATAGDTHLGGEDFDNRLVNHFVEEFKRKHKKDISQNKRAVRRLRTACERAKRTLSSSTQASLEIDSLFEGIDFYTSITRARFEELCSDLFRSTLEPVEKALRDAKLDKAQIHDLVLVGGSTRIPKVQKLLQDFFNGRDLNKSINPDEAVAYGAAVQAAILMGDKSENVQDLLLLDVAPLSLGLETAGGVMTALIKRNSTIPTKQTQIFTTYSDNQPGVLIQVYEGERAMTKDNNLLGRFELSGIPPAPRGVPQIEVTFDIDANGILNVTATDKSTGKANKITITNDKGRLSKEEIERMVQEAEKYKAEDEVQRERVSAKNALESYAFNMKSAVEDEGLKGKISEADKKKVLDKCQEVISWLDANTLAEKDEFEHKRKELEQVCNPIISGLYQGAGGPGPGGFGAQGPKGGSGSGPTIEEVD
Biotinylated Hsp70, sequence (P0DMV8 whole entry): as the sequence (P0DMV8 whole entry) above

Kd (Hsp70): 5.2 ± 0.3 µM
Compound: CCc1cc(-c2n[nH]cc2-c2ccc3c(c2)OCO3)c(O)cc1OC1OC(CO)C(O)C(O)C1O (stereo not drawn) [BT44, 2-[4-(4-Benzo[1,3]dioxol-5-yl-1H-pyrazol-3-yl)-2-ethyl-5-hydroxy-phenoxy]-6-hydroxymethyl-tetrahydro-pyran-3,4,5-triol]

fold lower amount bound with BT44 than without BT44 [1]: 10 fold
Compound: Biotinylated Hsp70 (from UniProt P0DMV8 1-641) (natural protein)

percent decrease of Caspase-3 bound to immobilized Hsp70 (against U-937wt cells treated with etoposide alone) [2]: 35 to 50%
Compound: Cellular Hsp70 of U-937 cells (from UniProt P0DMV8 1-641) (natural protein)

— PMC6163214, “Etoposide-Induced Apoptosis in Cancer Cells Can Be Reinforced by an Uncoupled Link between Hsp70 and Caspase-3” (International Journal of Molecular Sciences, 2018)
